Biological target: vitronectin (VTN) (UniProt P04004)
Assay: SPR; Biacore T200; LNA043 (~3,000 RU), FN1 or VTN (~500 RU) amine-coupled to CM5; integrins as analytes 0.6–10 μM, single-cycle kinetics, 37 °C, 1× HBS-N, 0.005% Tween 20, 1 mM MgCl2, 1 mM CaCl2, 2 mM MnCl2; 1:1 binding fit

Sequence of vitronectin (VTN) (P04004 20-478): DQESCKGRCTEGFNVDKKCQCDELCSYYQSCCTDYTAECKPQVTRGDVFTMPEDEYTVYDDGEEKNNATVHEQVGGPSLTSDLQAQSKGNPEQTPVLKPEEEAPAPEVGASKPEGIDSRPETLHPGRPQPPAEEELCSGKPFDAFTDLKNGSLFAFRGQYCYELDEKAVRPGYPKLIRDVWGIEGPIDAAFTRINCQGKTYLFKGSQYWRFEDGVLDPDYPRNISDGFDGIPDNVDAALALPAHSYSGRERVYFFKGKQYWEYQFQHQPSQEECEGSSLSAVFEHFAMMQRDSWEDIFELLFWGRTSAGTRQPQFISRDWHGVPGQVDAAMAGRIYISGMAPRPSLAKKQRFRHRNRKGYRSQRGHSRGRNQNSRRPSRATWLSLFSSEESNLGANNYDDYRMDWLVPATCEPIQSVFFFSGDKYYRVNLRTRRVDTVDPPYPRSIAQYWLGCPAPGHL

Kd: 997 nM
Substance: recombinant human αvβ3 integrin (from UniProt P06756 31-1048; P05106 27-718) (complex)
